Experimental data published in article PMC9082959, “Mechanism of Assembly of the Non-Covalent Spectrin Tetramerization Domain from Intrinsically Disordered Partners” (Journal of molecular biology, 2013).
Positions count from the first letter of the chain named.

Assays:
Assay in all cases: ITC; β16β17 at 25–50 μM in the cell titrated with 15–20 injections to 2–2.5 eq of α0α1; one-site binding model; PBS (50 mM sodium phosphate, 150 mM NaCl, pH 7.04), 25 °C; mutants only against the wild-type partner
Details in all cases: both partners purified
[1] = biological target: T1, β16β17 C9G (human, UniProt P11277 1898-2083, C2012G)
T1 construct: erythrocyte β-spectrin, human, residues 1898-2083 (β16β17); mutant of m2; also called C2012G; source: E. coli C41(DE3), purified (Ni2+ agarose, thrombin cleavage, gel filtration)
T1 sequence (looked up): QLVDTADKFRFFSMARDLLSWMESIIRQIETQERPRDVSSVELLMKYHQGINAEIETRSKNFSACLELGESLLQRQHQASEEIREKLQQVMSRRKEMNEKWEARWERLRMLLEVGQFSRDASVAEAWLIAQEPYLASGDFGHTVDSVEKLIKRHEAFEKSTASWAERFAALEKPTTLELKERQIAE

[2] = biological target: T2, β16β17 K43G (human, UniProt P11277 1898-2083, K2046G)
T2 construct: erythrocyte β-spectrin, human, residues 1898-2083 (β16β17); mutant of m2; also called K2046G; source: E. coli C41(DE3), purified (Ni2+ agarose, thrombin cleavage, gel filtration)
T2 sequence (looked up): T1 sequence (looked up) with G115C, K149G

[3] = biological target: T3, β16β17 K67G (human, UniProt P11277 1898-2083, K2070G)
T3 construct: erythrocyte β-spectrin, human, residues 1898-2083 (β16β17); mutant of m2; also called K2070G; source: E. coli C41(DE3), purified (Ni2+ agarose, thrombin cleavage, gel filtration)
T3 sequence (looked up): T1 sequence (looked up) with G115C, K173G

[4] = biological target: T4, β16β17 S16A (human, UniProt P11277 1898-2083, S2019A)
T4 construct: erythrocyte β-spectrin, human, residues 1898-2083 (β16β17); mutant of m2; also called S2019A; source: E. coli C41(DE3), purified (Ni2+ agarose, thrombin cleavage, gel filtration)
T4 sequence (looked up): T1 sequence (looked up) with G115C, S122A

[5] = biological target: T5, β16β17 R13A (human, UniProt P11277 1898-2083, R2016A)
T5 construct: erythrocyte β-spectrin, human, residues 1898-2083 (β16β17); mutant of m2; also called R2016A; source: E. coli C41(DE3), purified (Ni2+ agarose, thrombin cleavage, gel filtration)
T5 sequence (looked up): T1 sequence (looked up) with G115C, R119A

[6] = biological target: T6, β16β17 K46A (human, UniProt P11277 1898-2083, K2049A)
T6 construct: erythrocyte β-spectrin, human, residues 1898-2083 (β16β17); mutant of m2; also called K2049A; source: E. coli C41(DE3), purified (Ni2+ agarose, thrombin cleavage, gel filtration)
T6 sequence (looked up): T1 sequence (looked up) with G115C, K152A

B1: α0α1 (erythrocyte α-spectrin residues 2–163), wild type (domain or fragment, human, UniProt P02549 2-163, looked up)
chain: EQFPKETVVESSGPKVLETAEEIQERRQEVLTRYQSFKERVAERGQKLEDSYHLQVFKRDADDLGKWIMEKVNILTDKSYEDPTNIQGKYQKHQSLEAEVQTKSRLMSELEKTREERFTMGHSAHEETKAHIEELRHLWDLLLELTLEKGDQLLRALKFQQY
notes: synthetic gene (GenScript) in a modified pRSETA plasmid; also called α1α0; source: E. coli C41(DE3), purified (Ni2+ agarose, thrombin cleavage, gel filtration)
Ka [1]: 470000 M⁻¹
Ka [2]: 328000 M⁻¹
Ka [3]: 140000 M⁻¹
Ka [4]: 490000 M⁻¹
Ka [5]: 980000 M⁻¹
Ka [6]: 520000 M⁻¹
